US20260109775A1 (Eli Lilly, published 2026)

Columns and labels:
[1] = biological target: Human CD137 expressed on stable human 293 cells (human, UniProt Q07011 24-255); experiment: cell-based or functional assay
[2] = biological target: T1, Cynomolgus monkey CD137 expressed on stable human 293 cells (cynomolgus monkey); experiment: flow cytometry on 293 cells expressing cynomolgus monkey CD137, antibody at 0.5 micrograms/mL, MFI against control IgG
T1 construct: whole, on cells; also called Cyno-CD137

Sequence of Human CD137 expressed on stable human 293 cells (Q07011 24-255): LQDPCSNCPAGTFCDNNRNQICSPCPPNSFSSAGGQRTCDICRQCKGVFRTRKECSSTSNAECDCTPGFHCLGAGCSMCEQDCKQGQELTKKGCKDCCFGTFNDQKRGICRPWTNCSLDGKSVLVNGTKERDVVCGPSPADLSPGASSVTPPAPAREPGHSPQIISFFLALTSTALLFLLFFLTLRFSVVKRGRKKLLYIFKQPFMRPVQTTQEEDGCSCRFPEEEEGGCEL

B1: BMS20H4.9 (antibody, human IgG4 S228P, kappa, V domains shown)
VH: QVQLQQWGAGLLKPSETLSLTCAVYGGSFSGYYWSWIRQSPEKGLEWIGEINHGGYVTYNPSLESRVTISVDTSKNQFSLKLSSVTAADTAVYYCARDYGPGNYDWYFDLWGRGTLVTVSS
VL: EIVLTQSPATLSLSPGERATLSCRASQSVSSYLAWYQQKPGQAPRLLIYDASNRATGIPARFSGSGSGTDFTLTISSLEPEDFAVYYCQQRSNWPPALTFGGGTKVEIKR
notes: Comparator antibody, previously described in U.S. Pat. No. 7,288,638
Question: For B1, which “NF-kappaB luciferase reporter, max activity” value (“NF-kappaB luciferase reporter” for short) [1] is on record?
Answer: 115%

Question: And the MFI ratio [2]?
Answer: 0.94

B2: Antibody A1 (antibody, human IgG1, kappa)
heavy: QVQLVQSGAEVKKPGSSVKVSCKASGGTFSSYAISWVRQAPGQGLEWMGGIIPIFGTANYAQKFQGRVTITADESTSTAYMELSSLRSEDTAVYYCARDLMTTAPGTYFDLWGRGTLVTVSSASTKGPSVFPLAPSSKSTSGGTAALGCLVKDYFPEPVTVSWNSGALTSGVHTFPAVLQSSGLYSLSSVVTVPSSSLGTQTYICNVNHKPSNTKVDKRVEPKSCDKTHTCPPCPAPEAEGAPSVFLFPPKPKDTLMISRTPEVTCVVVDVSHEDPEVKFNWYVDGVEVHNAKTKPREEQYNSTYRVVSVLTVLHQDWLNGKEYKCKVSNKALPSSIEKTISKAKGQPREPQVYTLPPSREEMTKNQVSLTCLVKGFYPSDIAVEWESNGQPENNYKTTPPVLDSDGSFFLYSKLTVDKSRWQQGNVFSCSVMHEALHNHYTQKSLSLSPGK
light: AIRMTQSPPSLSASVGDRVTITCQASQDIGNSLGWYQQKPGKAPKLVIFDASDLETGVPSRFSGSGSGTDFSLTISSLQPEDFATYYCQQGNSFPLTFGQGTRLEIKRTVAAPSVFIFPPSDEQLKSGTASVVCLLNNFYPREAKVQWKVDNALQSGNSQESVTEQDSKDSTYSLSSTLTLSKADYEKHKVYACEVTHQGLSSPVTKSFNRGEC
Question: How did the “NF-kappaB luciferase reporter” value [1] turn out when B2 was run?
Answer: 63.4%

B3: Antibody A2 (antibody, human IgG1, kappa)
heavy: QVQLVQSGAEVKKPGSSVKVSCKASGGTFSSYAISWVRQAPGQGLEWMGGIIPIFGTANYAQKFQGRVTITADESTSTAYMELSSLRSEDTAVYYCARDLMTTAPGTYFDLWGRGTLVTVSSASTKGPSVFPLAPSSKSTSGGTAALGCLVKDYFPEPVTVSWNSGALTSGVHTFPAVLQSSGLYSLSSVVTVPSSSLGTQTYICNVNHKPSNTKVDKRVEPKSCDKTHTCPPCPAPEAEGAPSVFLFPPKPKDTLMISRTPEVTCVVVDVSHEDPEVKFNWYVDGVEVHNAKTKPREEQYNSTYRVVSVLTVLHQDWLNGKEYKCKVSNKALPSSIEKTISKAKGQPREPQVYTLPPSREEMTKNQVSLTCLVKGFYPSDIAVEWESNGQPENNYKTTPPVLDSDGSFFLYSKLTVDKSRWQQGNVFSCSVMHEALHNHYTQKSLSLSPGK
light: IRMTQSPPSLSASVGDRVTITCQASQDIGNSLGWYQQKPGKAPKLVIFDASDLETGVPSRFSGSGSGTDFSLTISSLQPEDFATYYCQQGNSFPLTFGQGTRLEIKRTVAAPSVFIFPPSDEQLKSGTASVVCLLNNFYPREAKVQWKVDNALQSGNSQESVTEQDSKDSTYSLSSTLTLSKADYEKHKVYACEVTHQGLSSPVTKSFNRGEC
Question: B3 was tested. Which “NF-kappaB luciferase reporter” value [1] did it give?
Answer: 72.3%
